Among the data in the supplement of paper PMC10567573 are protein stability index values, retold here.

A short description of the data set: protein stability index of a GFP-peptide fusion (GPS, HEK-293T) (PSI 1-6); higher = more stable.
[1] abbreviates: treatment: DMSO, c terminus: a fixed tail appended.
The mark [2] stands for this setting: treatment: MLN4924 1 uM, 8 h, c terminus: a fixed tail appended.

± gives the standard deviation.
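Note: 24-mer peptide tiles fused after GFP, lentivirally expressed, FACS-sorted into six equal bins by GFP/DsRed ratio, decoded by Illumina sequencing, PSI is the read-weighted mean bin number.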

With SIIECDMNVDFDAPLGYKEPERQV [UFD1], the protein stability index was found to be 4.27 ± 0.22 under setting [1] and 4.31 ± 0.18 under setting [2].
In the case of SKARRKKIMIIICCVILGIVIAST [STX1A], the protein stability index under setting [1] came to 2.69 ± 0.23 and the protein stability index under setting [2] worked out at 2.67 ± 0.33.
For the sequence SKLLLSGTADGADLRTVDPETQAR [ANKRD17], the protein stability index is, setting by setting: under setting [1], 5.08 ± 0.35; under setting [2], 5.13 ± 0.26.
On the same counts, the results for SLASASPPLSGRSTPKLTSRSAAQ [PPFIA4] are 4.5 ± 0.31 and 4.6 ± 0.14.
For SLDESVIYGPGNLSTNNNTLRDHF [SLC2A12], the protein stability index runs as follows: under setting [1], 3.63 ± 0.31; under setting [2], 3.6 ± 0.27.
Take SLHDHDGSSGASDQDTLAPLPHPG [DVL3]: the protein stability index is, setting by setting: under setting [1], 5.33 ± 0.25; under setting [2], 5.19 ± 0.33.
For the sequence SLKRHLKTHTGEKPHRCHNCGKSF [ZNF449], the protein stability index came to 2.91 ± 0.56 under setting [1] and 2.97 ± 0.15 under setting [2].
As for SLNGVYPRMNEVYTRLGEMNNAVR [CEP70], the protein stability index under setting [1] amounted to 2.55 ± 0.21 and the protein stability index under setting [2] is 3.08 ± 0.31.
The corresponding values for SLREYNDFLEEVEEIVFNLTNNVD [MNAT1] are 2.6 ± 0.47 and 3.13 ± 0.44.
Regarding SNLLKAGFIRHTVNKITFSEQCYY [DVL3], the protein stability index by setting is: under setting [1], 2.3 ± 0.39; under setting [2], 2.39 ± 0.3.
As for SNLSYHLEKNHPEEFCEFVKSNTE [ZBED1], the protein stability index is, setting by setting: under setting [1], 4.72 ± 0.18; under setting [2], 4.69 ± 0.29.
As for SPCLPEAEAMFAINADGVGDAKD [RAD51], the protein stability index was 5.38 ± 0.16 (treatment: DMSO, c terminus: native) and 5.34 ± 0.14 (treatment: MLN4924 1 uM, 8 h, c terminus: native).
As for SPEVLRKDPYGKPVDLWACGVILY [CAMK2A], the protein stability index is, setting by setting: under setting [1], 2.67 ± 0.56; under setting [2], 2.49 ± 0.49.
On to SPEWDTVTPEAKNLINQMLTINPA [CAMK2B], for which the protein stability index under setting [1] was 3.84 ± 0.18 and the protein stability index under setting [2] came out at 3.86 ± 0.21.
Consider SPFSPGLFHRLDEDWDSALFAELG [ATF6], for which the protein stability index reads like this: under setting [1], 2.6 ± 0.28; under setting [2], 2.44 ± 0.16.
On to SPLTLAACGGHVELAALLIERGAS [ANKRD17], for which the protein stability index stood at 2.48 ± 0.33 under setting [1] and 2.48 ± 0.31 under setting [2].
On the same counts, the results for SPLYADPYTPPATSHRRVTDVRGL [PLEKHN1] are 3.76 ± 0.35 and 3.63 ± 0.35.
Turning to SPRTRGSWSQPQPLKAPCLNGDTT [RASAL3], the protein stability index was determined as 3.92 ± 0.11 under setting [1] and 4.03 ± 0.23 under setting [2].
The corresponding values for SPSHSPEHRRTARRTPPGQQRPHP [ELOA2] are 5.06 ± 0.18 and 5.06 ± 0.22.
As for SQIHNNGQSDFRPKNGRHAWIWHD [LOXL2], the protein stability index worked out at 3.31 ± 0.35 under setting [1] and 3.22 ± 0.22 under setting [2].
As to SQIQGHKEMSKVWNDLRPKLSCLF [SNX8], the protein stability index was 2.2 ± 0.35 under setting [1] and 2.22 ± 0.22 under setting [2].
The corresponding values for SRARSASSPRGMVRVCDLLLKKKP [ANKRD17] are 3.61 ± 0.39 and 3.51 ± 0.4.
Consider SRRIYRCRNCINLQNEAQKRESFL [IQUB], for which the protein stability index reads like this: under setting [1], 2.17 ± 0.42; under setting [2], 2.24 ± 0.2.
On the same counts, the results for SSCVKILLDHNANIDIQNGFLLRY [ASB7] are 2.47 ± 0.43 and 2.5 ± 0.24.
In the case of SSEEFEDKWFRKIKDHFCPFENQF [C8orf76], the protein stability index amounted to 2.87 ± 0.19 under setting [1] and 2.74 ± 0.5 under setting [2].
On the same counts, the results for SSFFQQFFHCYCPVGFGRRTDPNG [CRY1] are 2.42 ± 0.52 and 2.11 ± 0.27.
The corresponding values for SSGPARGIAIVSVLVILISIVIFC [KCNA3] are 2.21 ± 0.21 and 2.21 ± 0.28.
In turn, SSKSDADSGFLGLRPTSVDPALRR [NOP53] gave a protein stability index under setting [1] of 4.51 ± 0.2 and a protein stability index under setting [2] of 4.51 ± 0.22.
Regarding SSNHGCQHECVNTDDSYSCHCLKG [MATN2], the protein stability index turned out to be 4.95 ± 0.08 under setting [1] and 5.1 ± 0.2 under setting [2].
For the sequence SSPGPWGLEALAGGDLMPAPADPT [FCHO1], the protein stability index runs as follows: under setting [1], 4.78 ± 0.4; under setting [2], 4.65 ± 0.23.
Take SSPRSVDSYSSTQHVPEELDLSSS [ATF6]: the protein stability index runs as follows: under setting [1], 5.29 ± 0.52; under setting [2], 5.4 ± 0.24.
With SSPSNMLPVRPQTNALIGGPMPMS [CLINT1], the protein stability index is, setting by setting: under setting [1], 3.85 ± 0.22; under setting [2], 3.7 ± 0.25.
In the case of SSQERKFMEERELLGQDEETAMRK [RSPH3], the protein stability index reads like this: under setting [1], 5.47 ± 0.38; under setting [2], 5.51 ± 0.3.
Turning to SSRIEQGEWGGRHPSWPWTRCLRM, the protein stability index was determined as 2.5 ± 0.19 under setting [1] and 2.67 ± 0.38 under setting [2].
SSSEQLQCCQTEIIELRRTVNALE [KRT36]: the protein stability index came to 3.58 ± 0.12 under setting [1] and 3.34 ± 0.38 under setting [2].
SSSQKEESPSTLQVLPDSESLPRS [MAGEA10] yielded a protein stability index under setting [1] of 5.36 ± 0.23 and a protein stability index under setting [2] of 5.4 ± 0.16.
SSSSRVLLRQQLMRAQAQEQERRE [TFE3] came in with a protein stability index under setting [1] of 4.87 ± 0.3 and a protein stability index under setting [2] of 5.02 ± 0.22.
With SSSSSSSPTSGSPRGSHSSALERL [LURAP1L], the protein stability index runs as follows: under setting [1], 4.83 ± 0.15; under setting [2], 4.91 ± 0.14.
The corresponding values for STCFTELQRDFLKQRPTKLKSLIR [OAS1] are 2.6 ± 0.17 and 2.66 ± 0.14.
In the case of STFIRRYSRYLNEKAFSYRQMAFD [SNAP91], the protein stability index runs as follows: under setting [1], 2.11 ± 0.24; under setting [2], 2.22 ± 0.28.
STSAVPNLFVPLNTNPKEVQEMRN [ADD1]: the protein stability index runs as follows: under setting [1], 4.53 ± 0.21; under setting [2], 4.43 ± 0.28.
On to STSRHVMAPVMAHVDPEEPWSPCS [ADAMTS4], for which the protein stability index reads like this: under setting [1], 4.32 ± 0.14; under setting [2], 4.41 ± 0.17.
For the sequence SVAGWSLFSLNVISLTCVSVAFAV [SLC19A2], the protein stability index was 2.92 ± 0.15 under setting [1] and 3.21 ± 0.27 under setting [2].
On the same counts, the results for SVDEQNALREVYAHAVLGQHSHVV [WEE1] are 3.42 ± 0.14 and 3.47 ± 0.33.
The corresponding values for SVDPIAAFCSSDEELEDSKALLYL [RBBP5] are 3.94 ± 0.26 and 4.08 ± 0.36.
Regarding SVEEQLSLISGCPNIQEAVEGAMH [CRYL1], the protein stability index under setting [1] amounted to 4.68 ± 0.17 and the protein stability index under setting [2] stood at 4.64 ± 0.15.
Turning to SVLLGASNADQLMENIGAIQVLPK [KCNAB2], the protein stability index was 3.58 ± 0.095 under setting [1] and 3.6 ± 0.24 under setting [2].
As for SVNICGMNEHPVCSRTWTNRLCHQ [SPAG8], the protein stability index came out at 2.29 ± 0.26 under setting [1] and 2.36 ± 0.14 under setting [2].
Regarding SWLEENVHEVLQAVDAGDPAVEAC [TCF25], the protein stability index reads like this: under setting [1], 4.86 ± 0.14; under setting [2], 4.84 ± 0.32.
Turning to SYQKPKEVVVAESELQKELKKVKT [DPCD], the protein stability index reads like this: under setting [1], 4.95 ± 0.36; under setting [2], 5.25 ± 0.31.
On the same counts, the results for TAHADEFDCPSELQHTQELFPQWH [STEAP1] are 3.79 ± 0.15 and 3.84 ± 0.07.
The corresponding values for TCKASHITSSVFPSASLGKASSRK [FBXO34] are 3.62 ± 0.28 and 3.55 ± 0.2.
TDAHVWNKSVTLYTVKDKATGEVL [NLN]: the protein stability index reads like this: under setting [1], 3.46 ± 0.6; under setting [2], 3.36 ± 0.55.
In the case of TDKVGTEAAFHPIEEYMVHVEEHF [FUT8], the protein stability index is, setting by setting: under setting [1], 4.07 ± 0.27; under setting [2], 4.31 ± 0.33.
On the same counts, the results for TDRPLLSTLEESVVRICCIRSFGH [SMG5] are 2.36 ± 0.24 and 2.08 ± 0.12.
On to TDSEHSDAEVSCTDNGTFNLSRGQ [RETREG3], for which the protein stability index by setting is: under setting [1], 5.24 ± 0.22; under setting [2], 5.28 ± 0.22.
The corresponding values for TEAGGVLMDVTGGPFDLMSRRVIA [IMPA1] are 3.22 ± 0.61 and 3.37 ± 0.42.
With TEGPSLLNQKGTAVETEGSGSRHP [SLC2A12], the protein stability index under setting [1] worked out at 5.43 ± 0.21 and the protein stability index under setting [2] was found to be 5.36 ± 0.43.
For TEPSGRVAKKTPTKRSTLIISGVS [C2CD2L], the protein stability index under setting [1] amounted to 3.76 ± 0.27 and the protein stability index under setting [2] amounted to 3.92 ± 0.34.
Turning to TEVVRDAVRKLKFARHIKKSEGQK [GULP1], the protein stability index is 3.65 ± 0.37 under setting [1] and 3.85 ± 0.29 under setting [2].
Sequence TEYQIVTDPGDVPAFLKWLSLASL [SLC2A12] yielded a protein stability index under setting [1] of 2.26 ± 0.35 and a protein stability index under setting [2] of 2.16 ± 0.42.
Regarding TFIPLEPLPQIPNLPFWVKEKANS [SPATS1], the protein stability index under setting [1] worked out at 2.81 ± 0.19 and the protein stability index under setting [2] was determined as 3.04 ± 0.15.
For the sequence TGREMHGKNWSKLCKDCQVIDGRN [TPPP], the protein stability index reads like this: under setting [1], 3.14 ± 0.16; under setting [2], 3.49 ± 0.11.
The corresponding values for TGWARKGLGNTWPGASGSAQSLDR [ATP23] are 4.17 ± 0.26 and 4.09 ± 0.16.
For TIGASFMTKTVQYQNELHKFLIWD [RAB22A], the protein stability index reads like this: under setting [1], 2.5 ± 0.45; under setting [2], 2.01 ± 0.16.
In the case of TIRGEVMFFKDRFYMRTNPFYPEV [MMP1], the protein stability index reads like this: under setting [1], 2.2 ± 0.39; under setting [2], 2.21 ± 0.12.
Take TISVNQTRVNLSSDTESTDLPSST [DLC1]: the protein stability index under setting [1] amounted to 4.11 ± 0.15 and the protein stability index under setting [2] was 4.41 ± 0.23.
Turning to TITSEVIEKCTTPLSDDHDEKYGV [CRY1], the protein stability index under setting [1] was 5.21 ± 0.12 and the protein stability index under setting [2] was determined as 4.99 ± 0.22.
With TKPLAIHPCGDKNCPAHWLAQDWE [ADAMTSL2], the protein stability index came to 2.73 ± 0.79 under setting [1] and 2.73 ± 0.12 under setting [2].
Take TLAQFPETLLGDPEKRTQYFDPLR [KCNA4]: the protein stability index was 3.5 ± 0.31 under setting [1] and 3.6 ± 0.36 under setting [2].
For TLERYMCSRFFIDFPDILEQQRKL [TENT5C], the protein stability index is, setting by setting: under setting [1], 2.35 ± 0.16; under setting [2], 2.37 ± 0.037.
Consider TLPLQDRELGPEELDELQAAFEEF [CABP4], for which the protein stability index reads like this: under setting [1], 5.27 ± 0.23; under setting [2], 5.27 ± 0.24.
